Like-named read-outs stand apart in the source and are kept apart here.
T1: human Claudin 9 (human, UniProt O95484 1-217)
T1 construct: whole, on cells; also called CLDN9; CLND9
T1 sequence (looked up): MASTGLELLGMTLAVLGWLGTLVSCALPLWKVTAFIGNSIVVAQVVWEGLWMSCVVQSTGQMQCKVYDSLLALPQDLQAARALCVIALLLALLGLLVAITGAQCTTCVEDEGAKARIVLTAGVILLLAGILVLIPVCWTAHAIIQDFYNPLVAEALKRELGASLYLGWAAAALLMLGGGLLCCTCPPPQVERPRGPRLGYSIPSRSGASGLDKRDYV

T2: human Claudin 6 (human, UniProt P56747 1-220)
T2 construct: whole, on cells; also called CLDN6
T2 sequence (looked up): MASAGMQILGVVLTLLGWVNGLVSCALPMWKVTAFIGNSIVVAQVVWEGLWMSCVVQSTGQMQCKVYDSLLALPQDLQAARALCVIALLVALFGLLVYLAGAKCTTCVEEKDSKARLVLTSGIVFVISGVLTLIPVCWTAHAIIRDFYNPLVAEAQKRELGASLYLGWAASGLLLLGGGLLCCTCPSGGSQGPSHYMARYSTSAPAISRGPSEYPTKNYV

T3: human Claudin 3 (human, UniProt O15551 1-220)
T3 construct: whole, on cells; also called CLDN3
T3 sequence (looked up): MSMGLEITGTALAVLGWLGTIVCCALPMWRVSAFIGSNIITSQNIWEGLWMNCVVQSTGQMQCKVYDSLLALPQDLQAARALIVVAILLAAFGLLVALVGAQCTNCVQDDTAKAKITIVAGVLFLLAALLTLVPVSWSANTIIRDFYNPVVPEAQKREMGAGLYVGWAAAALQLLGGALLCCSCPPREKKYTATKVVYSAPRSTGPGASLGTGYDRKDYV


Tests used:
[1] = target: T1, human Claudin 9; assay: flow cytometry, HEK293/H_CLDN9 cells, Ab titrated from 100 nM
Protocol: (§1) In this example, cell based binding of chimeric Abs on human CLDN6 & CLND9 over-expressing cell line were assessed using flow cytometry.
(§2) Briefly, the cells were incubated with chimeric Abs (from 100 nM, 6-fold dilution, 8 points) for 60 minutes at 4° C. Cells were pelleted and washed twice with 2% FBS/PBS buffer, and stained with fluorescent conjugated secondary antibody at 4° C. for 30 minutes. After that the cells were washed twice and resuspended in 80 μL of 2% FBS/PBS buffer. Fluorescent signal of binding was detected using Agilent. The EC50 was calculated using the GraphPad software (LaJolla, CA).

[2] = target: T2, human Claudin 6; assay: flow cytometry, HEK293/H_CLDN6 cells, Ab titrated from 100 nM
Protocol: as §1, §2

[3] = target: T1, human Claudin 9; assay: flow cytometry, HEK293/H_CLDN9 cells
Protocol: In this example, cell-based binding of z5 toward human CLDN9 engineering expressing cells were assessed using flow cytometry.
Briefly, 2 cell lines were incubated with antibodies (from 100 nM, 6 folds dilution, 8 points) at 4° C. for 60 minutes. Cells were pelleted and washed twice with 2% FBS/PBS buffer, and stained with fluorescent conjugated secondary antibody at 4° C. for 30 minutes. After that the cells were washed twice and resuspended in 80 μL of 2% FBS/PBS buffer. Fluorescent signal of binding was detected using Agilent. The EC50 was calculated using the GraphPad software.

[4] = target: T3, human Claudin 3; assay: flow cytometry, CHOK1/H_CLDN3 cells, Ab titrated from 100 nM
Protocol: (§3) In this example, cell-based binding of hu Abs on human CLDN3 expressing cells were assessed using flow cytometry.
(§4) Briefly, the CHOK1/H_CLDN3 cells were incubated with hu-Abs (from 100 nM, 6 folds dilution, 8 points). After incubation at 4° C. for 60 minutes. Cells were pelleted and washed twice with 2% FBS/PBS buffer, and stained with fluorescent conjugated secondary antibody at 4° C. for 30 minutes. After that the cells were washed twice and resuspended in 80 μL of 2% FBS/PBS buffer. Fluorescent signal of binding was detected using Agilent. The EC50 was calculated using the GraphPad software.

[5] = target: T2, human Claudin 6; assay: flow cytometry, HEK293/H_CLDN6 cells, Ab titrated from 100 nM; remark: listed apart in the source
Protocol: In this example, cell-based binding of humanized antibodies (hu Abs) on human CLDN6 expressing cells were assessed using flow cytometry.
Briefly, the HEK293/H_CLDN6 cells were incubated with hu-Abs (from 100 nM, 6 folds dilution, 8 points). After incubation at 4° C. for 60 minutes. Cells were pelleted and washed twice with 2% FBS/PBS buffer, and stained with fluorescent conjugated secondary antibody at 4° C. for 30 minutes. After that the cells were washed twice and resuspended in 80 μL of 2% FBS/PBS buffer. Fluorescent signal of binding was detected using Agilent. The EC50 was calculated using the GraphPad software.

[6] = target: T3, human Claudin 3; assay: flow cytometry, CHOK1/H_CLDN3 cells
Protocol: as §3, §4

[7] = target: T1, human Claudin 9; assay: flow cytometry, HEK293/H_CLDN9 cells, Ab titrated from 100 nM; remark: listed apart in the source
Protocol: In this example, cell-based binding of hu Abs on human CLDN9 expressing cells were assessed using flow cytometry.
Briefly, the HEK293/H_CLDN9 cells were incubated with hu-Abs (from 100 nM, 6 folds dilution, 8 points). After incubation at 4° C. for 60 minutes. Cells were pelleted and washed twice with 2% FBS/PBS buffer, and stained with fluorescent conjugated secondary antibody at 4° C. for 30 minutes. After that the cells were washed twice and resuspended in 80 μL of 2% FBS/PBS buffer. Fluorescent signal of binding was detected using Agilent. The EC50 was calculated using the GraphPad software (LaJolla, CA).

Binder	Top MFI [1]	Top MFI [2]	Top MFI [4]	Top MFI [5]	Top MFI [7]	binding result [3]	binding result [6]
85-H10A5 (antibody, V domains shown, Tested as chimeric antibody) VH: EVQLQQSGPELVKPGASVKISCKTSGYTFTEYPMHWVKQSHEKSLEWIGGINPKNGDANSNQKFKGKATLTVDKSSSTAYMELRSLTSEDSAVYYCARGWLLLFDVWGAGTMVTVSS VL: DIQMTQSSSSFSVSLGDRVTISCKASEDIYNRLAWYQQKPGNAPRLLISGATSLETGIPSRFSGSGSGKDYTLSITTLQTEDVAAYYCQQYWSSPLTFGAGTKLELR	113000	285000	–	–	–	–	–
81-H10F8 (antibody, V domains shown, Tested as chimeric antibody) VH: EVQLQQSGPELVKPGASVKISCKTSGYTFTEYTMHWVKQSHGKSLEWIGGINPNNGGTSYNQKFKGKATLTVDKSSRTAYMELRSLTSEDSAVYYCARGMVVAFYFDCWGQGTTLTVSS VL: DIQMTQSPASQSASLGESVTITCLASQTIGTWLAWYQQKPGKSPQLLIYAATGLADGVPSRFSGGGSGTKFSFKISSLQVEDFVSYYCQQLYSTPYTFGGGTKLEIK	105000	257000	–	–	–	–	–
59-H12C5 (antibody, V domains shown, Tested as chimeric antibody) VH: EVQLVESGGGLVQPGGSLKLSCAASGFTFSSHGMSWVRQTADRGLELVASINSNGGRTYYPDSMKGRFTISRDNAKNTLYLQLSSLQPEDTALYYCACYYDNTYYAMDYWGQGTSLTVSS VL: QIVLTQSPAIMSASLGERVTMTCTASSSVSSSSLHWYQQKPGSSPKLWIYTTSTLASGVPARFSGSGSGTSYSLTISSMEAEDAATYYCHQYHRSPPTFGGGTKLEIK	341000	379000	–	–	–	–	–
97-C10E1-2-P1.z6 (antibody, V domains shown) VH: QVQLQQSGAEVKKPGASVKVSCKASGYAFTGYTMNWVRQAPGQNLEWIGLSNPYNAGTIYNQKFKGRVTLTVDKSTSTVYMELLSLRSEDTAVYYCARNYYYGSSYAYYYAMDYWGQGTTVTVSS VL: EAVMTQSPATLSVSPGERATLSCRSSTGAVTTSNYANWVQQKPGQAPRLLIGGTNNRAPGIPARFSGSGSGDEATLTISSLQSEDFAVYFCALWYSNHWVFGGGTKVEIK	–	–	139	32200	417	no binding (tested: 100 nM (highest concentration tested))	no binding (tested: 100 nM (highest concentration tested))
97-C10E1-2-P1.z14 (antibody, V domains shown) VH: QVQLQQSGAEVKKPGASMKISCKASGYAFTGYTMNWVRQAPGQNLEWIGLSNPYNAGTIYNQKFKGRATLTVDKSTSTAYMELLSLRSEDTAVYYCARNYYYGSSYAYYYAMDYWGQGTTVTVSS VL: DAQMTQSPSSLSASVGDRVTITCRSSTGAVTTSNYANWVQQKPGKAFKGLIGGTNNRAPGVPARFSGSLSGTDAALTISSLQPEDFATYFCALWYSNHWVFGGGTKVEIK	–	–	158	115000	661	no binding (tested: 100 nM (highest concentration tested))	no binding (tested: 100 nM (highest concentration tested))
97-C10E1-2-P1.z1 (antibody, V domains shown) VH: QVQLVQSGAEVKKPGASVKVSCKASGYAFTGYTMNWVRQAPGQGLEWIGLSNPYNAGTIYNQKFKGRVTMTVDKSTSTVYMELSSLRSEDTAVYYCARNYYYGSSYAYYYAMDYWGQGTTVTVSS VL: EAVMTQSPATLSVSPGERATLSCRSSTGAVTTSNYANWVQQKPGQAPRLLIGGTNNRAPGIPARFSGSGSGDEATLTISSLQSEDFAVYFCALWYSNHWVFGGGTKVEIK	–	–	136	45100	479	no binding (tested: 100 nM (highest concentration tested))	no binding (tested: 100 nM (highest concentration tested))
97-C10E1-2-P1.z11 (antibody, V domains shown) VH: QVQLQQSGAEVKKPGASMKISCKASGYAFTGYTMNWVRQAPGQNLEWIGLSNPYNAGTIYNQKFKGRATLTVDKSTSTAYMELLSLRSEDTAVYYCARNYYYGSSYAYYYAMDYWGQGTTVTVSS VL: EAVMTQSPATLSVSPGERATLSCRSSTGAVTTSNYANWVQQKPGQAPRLLIGGTNNRAPGIPARFSGSGSGDEATLTISSLQSEDFAVYFCALWYSNHWVFGGGTKVEIK	–	–	118	31000	287	no binding (tested: 100 nM (highest concentration tested))	no binding (tested: 100 nM (highest concentration tested))

Continued, in another order:

Top MFI [1]	Top MFI [2]	Top MFI [4]	Top MFI [5]	Top MFI [7]	Binder	binding result [3]	binding result [6]
102000	264000	–	–	–	59-A2E6 (antibody, V domains shown, Tested as chimeric antibody) VH: EVQLQQSGPELVKPGASVKISCKTSGYTFTEYTMHWVKQSHGKSLEWIGGINPKNGGTSYNQKFKGKATLTVDKSSSTVYMEFRSLTTEDSAVYYCARGMLVAFYFDCWGQGTTLTVSS VL: DIQMTQSPASQSASLGESVTITCLASQTIGTWLAWYQQKPGKSPQLLIYAATSLADGVPSRFSGSGSGTKFSFKISSLQAEDFVSYYCQQLYSTPYTFGGGTKLEIK	–	–
–	–	130	107000	149	97-C10E1-2-P1.z12 (antibody, V domains shown) VH: QVQLQQSGAEVKKPGASMKISCKASGYAFTGYTMNWVRQAPGQNLEWIGLSNPYNAGTIYNQKFKGRATLTVDKSTSTAYMELLSLRSEDTAVYYCARNYYYGSSYAYYYAMDYWGQGTTVTVSS VL: EAVVTQSPATLSVSPGERATLSCRSSTGAVTTSNYANWVQEKPGQAFRGLIGGTNNRAPGIPARFSGSLSGDEATLTISSLQSEDFAVYFCALWYSNHWVFGGGTKVEIK	no binding (tested: 100 nM (highest concentration tested))	no binding (tested: 100 nM (highest concentration tested))
–	62100	–	–	–	36-E6A6 (antibody, V domains shown, Tested as chimeric antibody) VH: QVQLQQSGGEVVRPGTSVKVSCKASGYAFTNNLIEWVKQRPGQGLEWIGVIHPGSGGSNYNEKFKNKATLTTDKSSSTAYIQLSSLTSDDSAVYFCARRGRDYAMDYWGQGTSVTVSS VL: EIVLTQSPAIMSASLGEKVTMSCRASSSVNSIYWYQQKSDASPKLWIYYTSNLAPGVPARFSGSGSGNSYSLTIRSMEGEDAATYYCQQFTSSPLTFGAGTKLELK	–	–

Source: patent US20240317851A1 (LANOVA MEDICINES, published 2024)
